Assays:
[1] = molecular target: L17C APP-eGFP (human APP751 with leucine 17 of the Aβ sequence mutated to cysteine, fused to eGFP) (human); experiment: FRET or BRET; homoFRET by time-resolved fluorescence anisotropy imaging (tr-FAIM), epifluorescence excitation, objective 60x NA 1.49, xNA = 1.2; living HEK293 cells, 37°C, 5% CO2
[2] = molecular target: L17C APP-eGFP (human APP751 with leucine 17 of the Aβ sequence mutated to cysteine, fused to eGFP) (human); experiment: FRET or BRET; homoFRET by tr-FAIM under TIRF excitation (s polarized light), at the plasma membrane; objective 60x NA 1.49; living HEK293 cells, 37°C, 5% CO2
[3] = molecular target: enhanced Green Fluorescent Protein (eGFP), cytosolic; experiment: FRET or BRET; homoFRET by time-resolved fluorescence anisotropy imaging (tr-FAIM), epifluorescence excitation, objective 60x NA 1.49, xNA = 1.2; living HEK293 cells, 37°C, 5% CO2

depolarization time associated with energy transfer (homoFRET) [1] | depolarization time associated with energy transfer (homoFRET) [2] | proportion of molecules in interaction (homoFRET) [3] | Substance
2.4 ns | 5.4 ns | – | L17C APP-eGFP (human APP751 with leucine 17 of the Aβ sequence mutated to cysteine, fused to eGFP) (natural protein)
– | – | 6.6% | enhanced Green Fluorescent Protein (eGFP), cytosolic

— PMC3433432
